A short description of the data set: yeast display, Sf9 membrane polyspecificity reagent, FACS + sequencing; frameworks hold sequencing errors. The method, boiled down:
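A synthetic nanobody library was expressed on Saccharomyces cerevisiae BJ5465 by galactose induction for 36–48 hours. The library was stained for 1 hour at 4 °C with 10% biotinylated, detergent-solubilized Sf9 membrane reagent and enriched with streptavidin microbeads before FACS. Low and high (top ~1%) gates were set on anti-HA fluorescence for expression and streptavidin fluorescence for reagent binding, and each polyreactivity label reflects the gate of origin.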
On to “QVQLVESVGGLVQAGGSLRLSCDATGNTFRIYAMGWYIHAPGKERQLVAAISQSGGSTYYADSVKGRFTISRDNAKNTVYLQMHSLKPEDTAVYYCNRRFAPFWGRDGYWGQGTQVTVSS”, for which the “polyreactivity (PSR sort gate)” value was “high polyreactivity”.
With “QVQLVESVGGLVQAGGSLRLSSAASGFTFKYYAMVWYRQAPGKERELVAAISWSGTRTYYADSVKGRVTISRDNAKYTVYLQMNSLKPEDTAVYYCDADFNGRYDYWGQGTQVTVSS” the entry was “high polyreactivity”; with “QVQLVESVGGLVQAGGSLRLSSAASGFTIVGNTMGWSRQAPGKERELVASINTNGGSTYYADSVKGRFTISRDNAKNTVYLQINSLKPEDTAVYYCNARSWYPYDYWGQGTQVTVSS”, “low polyreactivity”; with “QVQLVESVGGLVQAGGSLRLSSAASGRTFRYYTMVWYTQAPGKEREFVAAISSTGGTYYADSVKGRFTISRDNAKNTVYLQMNSLKPEDTAVYYCAATFIQVVVNVQMYDYDYWGQGTQVTVSS”, “low polyreactivity”.
With “QVQLVESVGGLVQAGGSLRLTCAASGSIFKYYDMGWYRQAPGTERELVAAISSNGGRTYYADSVKGRFTISRDNAKNTDYLQMNSLKPEDTAVYYCARRFRRTGESEYDYWGQGTQVNVSS” the entry was “high polyreactivity”; with “QVQLVESVGGLVQAGGSLSLSCAASGIIFVPYAMVWYRQAPGKERELVAAISSGGSTDYADSVKGRFTISRDNAKNTVYLQMNSLKPEDTAVYYCNKYYRGIFKAHRDYWGQGTQVTLSS”, “low polyreactivity”.
Consider “QVQLVESVGGLVQAGGSLSLSCAASGSTLSDNAMGWYRQAPGKERELVAAIRRVGSTNYADSVKGRFTISRDNAKNTVYLQMNSLKPEDTAVYYCAVRHVWPWQGYDYWGQGTQVTVSS”, for which the “polyreactivity (PSR sort gate)” value was “low polyreactivity”.
The same measure for “QVQLVESVGGLVQAGGTLRLSCAASGSTFNINAMGWYRQAPGKERELVAAISWSGDITYYADSVKGRFTISRDNAKNTVYLQMNSLKPEDTAVYYCNTDDPVNYWYAEYDYWGQGTQVTVSS”: “low polyreactivity”; for “QVQLVESVGGLVQAGGTLRLSCSASGSTFNVYAMGWYIQATGKERELVAAITRRGGSTYYADSVKGRFTISRDNAKNTVYLQMNSLKPEDTADYYFAARRRLDYYYYNYWGQGTQETVSS”: “high polyreactivity”; for “QVQLVESVGGLVQAGGTLRLTCAASGSNFKAYAMRWYRQATGKERELVARIRYRGGSTYNADSVKGRFTISRDNAKNTVFLQMNSLKPEETAVYYCAARLSPYHTDRGDYLGQGTQVTVSS”: “high polyreactivity”.
Consider “QVQLVESVGGLVQAGGTLSLSCAASGFTFRNYAMGWYRQAPRKEREFVAAISRRGGSTYYADSVKGRITISRDNAKNTVYLQINSLKPEDSAVYYCATEPGKQNTYRMDYCGQGTQVTVSS”, for which the “polyreactivity (PSR sort gate)” value was “high polyreactivity”.
With “QVQLVESVGGLVQAGVSLRLSGAASGNTFVPYAMGWSRQAPGKESELVAAISLRGGSTYYADSVKGRFTISRDNAKNTVYLQMNSLKPEDTAVYYCAARTFYRPGLAGGYWGQGTQVTVAS” the entry was “high polyreactivity”; with “QVQLVESVGGLVQARGSLRLSCAASASIFPSYAMGWYIQAPGKERELVAVISWRGGSTYYADSVKGRFTISRDNAKNTVYLQMNRLKPEDTAVYYCAARSWDPKLSTYPFHFNYWGQGTQVTVSS”, “high polyreactivity”; with “QVQLVESVGGLVQSGGSLRLSCAASGFIFVVYAMGSYRQAPGKERELVATISSGGGTYYADSVKGRFTISRDNAKNTVYLQMNSLKPEDTAVYYCAARRRRLYHFGGNNYWGQGTQVTVSS”, “high polyreactivity”.
For the sequence “QVQLVESVGGVVQAGGSLGLSCAASGRPFGRNVMGWYRQAPGKERELVAAISRSGGSTYYADSVKGRFTISRDNAKNTVYFQMNSLKPEDTAVYYCAAYSVGDYYWGQGTQVTVSS”, the “polyreactivity (PSR sort gate)” value is “high polyreactivity”.
For the sequence “QVQLVESVGRLVQAGGSLRLSCAASGSIIRSYTKGWYRQAPGKEWELVAASSGRAGSTYYADSVKGRFTISRDIAKNTVYLQMPGLKPEDTAVYYCAVILGGRAQSYYWGHGTQVTVSS”, the “polyreactivity (PSR sort gate)” value is “high polyreactivity”.
Turning to “QVQLVESVGRLVQAGGSLRLSCGASGRIFKWYAMGWFRQARGNERELVAAITSRGSTYYADSVKGRFTISRDNAKNTVYLQMNSLKPEDTAVYYCNRYVVHRRDDYWGQGTQVTVSS”, the “polyreactivity (PSR sort gate)” value was “high polyreactivity”.
With “QVQLVESVGVLVQAGGSLHLSCAASGSTFRYNAIGWYRQAPGKEREVVAAISKRGGSTYYADSVKGRFTISRDNAKNTVYLQMNSLKPEDTAVYYCAASYPSWSTRGESDYWGQGTQVTVSS”, the “polyreactivity (PSR sort gate)” value is “high polyreactivity”.
Regarding “QVQLVESVLGLVQAGGSLRLICDASGSIFGYNVIGWYRQAPGKERELVAAITGRGDSTYYADSVKGRFTISRDNAKNTVYLQMNSLKPEDTAVYYCAAYPNQSEYYYWGQGTQVTVSS”, the “polyreactivity (PSR sort gate)” value was “low polyreactivity”.
The same measure for “QVQLVESVRGLVQAGGSLRLSCAASGSIFDYNAMGWYREAPGKEREFVASITYSGGSTNYADSVKGRFTISRDNAKNTVYLQMNSLKPEDTAVYYCSKTIGIVWIYYPGARYDYWGQGTQVTVSS”: “low polyreactivity”.
As for “QVQLVESVRGLVQAGGTLRLSCAPSGGIFWVYAMGWYRQAPGKERELVAAISNSDTSTSYADSVKGRFTISRVNAKNTVYLQMNSLKPEDTAVYSCNADSPSLSGDYWGQGTQVTVSS”, the “polyreactivity (PSR sort gate)” value is “low polyreactivity”.
“QVQLVESVVCLVQAGGSLRLSCAASGSIFRSYAMGWYRQAPGKERELVASISRRGGSTYYADSVKGRFTISRDNAKNTVYLQMNSLKPEDTAVYYCAAVGYNSRVSTTPSEMYYWGQGTQVTVSS”: the “polyreactivity (PSR sort gate)” value is on record as “high polyreactivity”.
With “QVQLVESVVGLVQAGGSLRLSSAASGGTFSENAMGWYRQAPGKERELVAAITWSVGNTYADSVKGLFTISRDNAKNTVYLQMNSLKPEDTAVYYCAKDFSVPAYDYWGLGTQVTVSS” the entry was “low polyreactivity”.
Turning to “QVQLVESVVGLVQAGRSLRLSCAASGYTFWQYAMGWYRQAPGKERELVATITSRGGSTYYADSVKGRFTISRDTAKNSVYFQMNSLKPEDTAVYYCAARVYYPSTSNAAYGYCGQGTQVTVSS”, the “polyreactivity (PSR sort gate)” value was “high polyreactivity”.
The same measure for “QVQLVESVVGLVQARVSLRLSCASSGFIFRFYTMGWYIQPPGKESEFVPAISWSGTSTYYADSVKGRFTISRDNAKNTVYLQMNSLKPEDTAVYYCAAGYKWKGTVWIMDYWGQGTQVTVSS”: “high polyreactivity”; for “QVQLVESWGALVQAGGSLRLSCAASRRTFALNAMGWYRQAPGKETELVAAITSSGGSSYYADSVKGRFTISRDIAKNSVYLLMNSLNPVDTAVYYCAADRHYGTEYAYDYWGEGTQVTVSS”: “low polyreactivity”.
“QVQLVESWGGLVQAAASLRLICDASGRTIRWSAMGWYRPAPGKERELVATITTSGTPSYADSVKGRFTISRDNAKNTVYLQMNSLTPEDTAVYYCAADTYPWGGSSSYDWGQGTQVTVSS”: the “polyreactivity (PSR sort gate)” value is reported as “high polyreactivity”.
The same measure for “QVQLVESWGGLVQAGCRLRLSCAASGRTFLTYVMGWYRQAPGKERELVAAITRGGRTNYADSVKGRFTISRDNAKNTVFLQMNSLKPEDTAVYYCARDDTPRYDYWGQGTQVTVSS”: “low polyreactivity”; for “QVQLVESWGGLVQAGGSLPLSCAASGFTFVSYAMGWSRQAPGKERELVAAISKRGGSTSYADSVKGRFTISRDNAKNTVYLQMNSLKPEDTAVYYCYKRSYAWSPHVDYWGQGTQVTVSS”: “high polyreactivity”.
With “QVQLVESWGGLVQAGGSLRISCAASGRISYGYAMGWYRQAPGKERELVAAISRSGGTTYYADSVKGRFTISRDNAKNTVYLQMNSLNPEDTAVYYCAAGDAYYTEALPFGDYDYWGQGTQVTVSS” the entry was “low polyreactivity”; with “QVQLVESWGGLVQAGGSLRLSCAASGFIFTLYAMGWYRQATGKEREFVAAISWSDGSTTYADSVKGRFTISRDNAKTTVYLQMNSLKPEDTAVYYCAAVTSSYIRGLVYHFYYWGQGTQVTVSS”, “low polyreactivity”.
With “QVQLVESWGGLVQAGGSLRLSCAASGFIFYRYAMGWYRQAPGKERELVAVISVSGGSTYADSVKGRFTISRDNAKNTVYLQMNSLKPEDTAVYYCAARRYSYYRVHGTRHDYWGQGTQVTVSS” the entry was “high polyreactivity”; with “QVQLVESWGGLVQAGGSLRLSCAASGFTFAYNTMGWYRQAPGTEREWVAAISSSGGSTYYADSVKGRFTISRDNAKNTVYLQMNSLKPEDTAVYDCAAPFWRSFWASDYCGQGTQVTVSS”, “high polyreactivity”; with “QVQLVESWGGLVQAGGSLRLSCAASGFTFDNYPMGWYRQAPGKERELVAAIINSGGSTYYADSVKGRFTISRDNAKNTVYLQMNSLKPEDTAVYYCAARILPFRQWYRTYEYWGQGTQVTVSS”, “high polyreactivity”.
In the case of “QVQLVESWGGLVQAGGSLRLSCAASGFTFNANAMGWYRQAPGKERELVAAISLSGGRTYYADSVKGRFTISRDNEKNTVYLQMNSLKPVDTAVYYCAASPDGSFRRFSRVVSGDYWGQGTQVTVSS”, the “polyreactivity (PSR sort gate)” value was “high polyreactivity”.
“QVQLVESWGGLVQAGGSLRLSCAASGITFSNYAMGWYRQAPGKERELVAAISKRGGSTYYADSVKGRFTISRDTAKYTVYLQMNSLKPEDTAVYYCAAAGVRVYVRSVLDYWGQGTQVTVSS”: the “polyreactivity (PSR sort gate)” value was “high polyreactivity”.
The same measure for “QVQLVESWGGLVQAGGSLRLSCAASGLIFKVYAMGWYRQAPGKERELVAAITYSGGSTDYADSVKGRFTISRDNAKNTVYLQMNSLKPEDTAVYYCNVEKVGHVNSYGYDYWGQGTQVTVSS”: “low polyreactivity”; for “QVQLVESWGGLVQAGGSLRLSCAASGLPSKLMLMVWYRQAPGKERELVAAISSSGGRTYYADSVKGRFTISRDNAKITVYLQMNSLKPEDTAVYYCAAYFPRTLFEFGYWGQGNQVTVSS”: “high polyreactivity”; for “QVQLVESWGGLVQAGGSLRLSCAASGLTFNYYDMGWYRQAPGKERELVAAISRSGTNTSYADSVKGRFTISRDNAKNTVYLQMNSLKPEDTAVYYCNAAGVYLAAGPYTANFNYNYWGQGTQVTVSS”: “low polyreactivity”.
As for “QVQLVESWGGLVQAGGSLRLSCAASGRIFDPYAMGWYRQAPGKERELVATITLRGGITYYADSVKGRFTISRDNAKNTVYLEMNSLKPEDTAVYYCAKKVRYYVRWEYDYWGQGTQVTVSS”, the “polyreactivity (PSR sort gate)” value was “low polyreactivity”.
